The values that follow come from patent US20060259987A1 (UNIVERSITY OF UTAH RESEARCH FOUNDATION, published 2006).

In assay [1] the target is T1, factor Xa (human, UniProt P00742 41-179; P00742 235-488, limits assumed).
T1 construct: also called fXa; human factor Xa
The experiment in a line: factor Xa prog: pseudo-first-order loss of chromogenic activity, no heparin, 25 C. The method, then:
(§1) Polybrene was added with the chromogenic substrate to quench the heparin dependent reaction. […] This was plotted against the heparin concentration to calculate the second-order rate constant for the inhibition by the heparin-ATIII complex, (Kₕₑₚ) from the equation Kobs=Kₕₑₚ[H]ₒ([AT]ₒ/[AT]ₒ+Kd)+Kuncat[AT]ₒ

The target in assay [2] is T2, thrombin (human, UniProt P00734 328-622). The experiment in a line: thrombin prog: pseudo-first-order loss of chromogenic activity, no heparin, 25 C. The method, then:
as §1

For assay [3], the target named is T1, factor Xa. The assay can be described thus: Kapp fXa/prog relative to plasma.at3.
Assay [4] has as its target T1, factor Xa. The experiment in a line: Kapp fXa/hep relative to plasma.at3.
The target of assay [5] is T2, thrombin. The experiment in a line: Kapp IIa/prog relative to plasma.at3.
The target in assay [6] is T2, thrombin. The experiment in a line: Kapp IIa/hep relative to plasma.at3.
Assay [7] addresses T1, factor Xa. The assay can be described thus: cell-based or functional assay.
The target of assay [8] is T2, thrombin. The assay can be described thus: cell-based or functional assay.
Assay [9] deals with T3, human neutrophil elastase (human, UniProt P08246 30-247, limits assumed).
T3 sequence (looked up): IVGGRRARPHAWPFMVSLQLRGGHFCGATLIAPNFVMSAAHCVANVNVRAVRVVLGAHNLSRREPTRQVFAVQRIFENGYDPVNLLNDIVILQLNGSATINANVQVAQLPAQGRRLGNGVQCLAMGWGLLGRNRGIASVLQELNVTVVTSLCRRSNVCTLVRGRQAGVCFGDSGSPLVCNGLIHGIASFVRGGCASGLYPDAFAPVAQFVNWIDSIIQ
The experiment in a line: cell-based or functional assay.

The target of assay [10] is T4, human factor Xa (human, UniProt P00742 41-179; P00742 235-488, limits assumed).
T4 construct: the active enzyme is a two-chain form of it; also called fXa
T4 sequence (P00742 41-179 limits assumed, chain 1 of 2): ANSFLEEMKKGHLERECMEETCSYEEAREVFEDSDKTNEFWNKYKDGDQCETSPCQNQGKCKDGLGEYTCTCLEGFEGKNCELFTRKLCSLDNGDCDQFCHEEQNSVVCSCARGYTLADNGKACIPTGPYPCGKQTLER
T4 sequence (P00742 235-488 limits assumed, chain 2 of 2): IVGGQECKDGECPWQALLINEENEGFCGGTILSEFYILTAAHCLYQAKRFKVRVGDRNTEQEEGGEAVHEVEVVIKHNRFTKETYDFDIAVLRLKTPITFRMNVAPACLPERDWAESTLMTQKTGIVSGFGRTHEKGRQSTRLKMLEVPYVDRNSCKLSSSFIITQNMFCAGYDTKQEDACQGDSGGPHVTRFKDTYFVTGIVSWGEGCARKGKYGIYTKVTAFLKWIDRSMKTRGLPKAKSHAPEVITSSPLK
The experiment in a line: residual enzyme activity against time, pseudo-first-order, with heparin. The method, then: Polybrene was added with the chromogenic substrate to quench the heparin dependent reaction. The observed pseudo-first-order rate constants were calculated for each heparin (1 nM-5 nM) concentration from the slope of the log of residual proteinase activity vs. time. This was plotted against the heparin concentration to calculate the second-order rate constant for the inhibition by the heparin-ATIII complex, (Kₕₑₚ) from the equation Kobs=Kₕₑₚ[H]ₒ([AT]ₒ/[AT]ₒ+Kd)+Kuncat[AT]ₒ

The target of another assay is human thrombin (human, UniProt P00734 328-622). The assay can be described thus: residual enzyme activity against time, pseudo-first-order, progressive (no heparin).
Assay [11] concerns the target T4, human factor Xa. The description is as above.

T1 sequence (P00742 41-179 limits assumed, chain 1 of 2): as the sequence (P00742 41-179 limits assumed, chain 1 of 2) above
T1 sequence (P00742 235-488 limits assumed, chain 2 of 2): as the sequence (P00742 235-488 limits assumed, chain 2 of 2) above

B1: leai(bv) (other, human, UniProt P01008 33-464, looked up)
chain: HGSPVDICTAKPRDIPMNPMCIYRSPEKKATEDEGSEQKIPEATNRRVWELSKANSRFATTFYQHLADSKNDNDNIFLSPLSISTAFAMTKLGACNDTLQQLMEVFKFDTISEKTSDQIHFFFAKLNCRLYRKAAKSSKLVSANRLFGDKSLTFNETYQDISELVYGAKLQPLDFKENAEQSRAAINKWVSNKTEGRITDVIPSEAINELTVLVLVNTIYFKGLWKSKFSPENTRKELFYKADGESCSASMMYQEGKFRYRRVAEGTQVLELPFKGDDITMVLILPKPEKSLAKVEKELTPEVLQEWLDELEEMMLVVHMPRFRIEDGFSLKEQLQDMGLVDLFSPEKSKLPGIVAEGRDDLYVSDAFHKAFLEVNEEGSEAAASTALEAIGRSLNPNRVTFKANRPFLVFIREVPLNTIIFMGRVANPCVK
notes: mature; also called LEAI (parent)
On to B1, for which the “kapp (apparent second-order inhibition rate constant)” value with factor Xa [1] turned out to be 9550 M⁻¹ s⁻¹; with thrombin [2] it was 5280 M⁻¹ s⁻¹. Besides, the “Kapp as a percentage of the plasma ATIII value” (from here on “Kapp as a percentage”) with factor Xa [3] is 457%; with factor Xa [4] it was 192%; with thrombin [5], 75%; with thrombin [6], 159%.

B2: LEAI.472 (other)
chain: SPVDICTAKPRDIPMNPMCIYRSPEKKATEDEGSEQKIPEATNRRVWELSKANSRFATTFYQHLADSKNDNDNIFLSPLSISTAFAMTKLGACNDTLQQLMEVFKFDTISEKTSDQIHFFFAKLNCRLYRKANKASKLVSANRLFGDKSLTFNETYQDISELVYGAKLQPLDFKENAEQSRAAINKWVSNKTEGRITDVIPSEAINELTVLVLVNTIYFKGLWKSKFSPENTRKELFYKADGESCSASMMYQEGKFRYRRVAEGTQVLELPFKGDDITMVLILPKPEKSLAKVEKELTPEVLQEWLDELEEMMLVVHMPRFRIEDGFSLKEQLQDMGLVDLFSPEKSKLPGIVAEGRDDLYVSDAFHKAFLEVNEEGSEAAASTALEANGRSLNPNRVTFKANRPFLVFIREVPLNTIIFMGRVANPCVK
For B2, the “kapp (apparent second-order inhibition rate constant)” value in the assay with factor Xa [1] came out at 1800 M⁻¹ s⁻¹. The “kapp (apparent second-order inhibition rate constant)” value with thrombin [2] is 278 M⁻¹ s⁻¹. The “Kapp as a percentage” value in the assay with factor Xa [3] worked out at 86%. Also, the “Kapp as a percentage” value with factor Xa [4] stood at 52%. Besides, in the assay with factor Xa [7], the “IC50 fXa/UFH; HCA #3” value was 15 nM, the “IC50 fXa/UFH; HCA #4” value stood at 38 nM, the “rsd. Xa catG; CA #15; stg1 conc 200” value was determined as 0% and the “rsd. Xa hne; CA #15; stg1 conc 200” value is 1%. For the same molecule, in the assay with factor Xa [7], the “rsd. Xa no add; CA #15; stg1 conc 200” value was found to be 0%. In the assay with thrombin [8], the “IC50 IIa/UFH; HCA #3” value was 110 nM, the “IC50 IIa/UFH; HCA #4” value stood at 200 nM, the “rsd. IIa catG; CA #15; stg1 conc 200” value came to 1% and the “rsd. IIa hne; CA #15; stg1 conc 200” value was determined as 21%. In addition, the “rsd. IIa no add; CA #15; stg1 conc 200” value in the assay with thrombin [8] was 0%. The “Kapp as a percentage” value with thrombin [5] was 4%. The “Kapp as a percentage” value with thrombin [6] was determined as 3%.

B3: LEAI.472 (other)
chain: SPVDICTAKPRDIPMNPMCIYRSPEKKATEDEGSEQKIPEATNRRVWELSKANSRFATTFYQHLADSKNDNDNIFLSPLSISTAFAMTKLGACNDTLQQLMEVFKFDTISEKTSDQIHFFFAKLNCRLYRKANKASKLVSANRLFGDKSLTFNETYQDISELVYGAKLQPLDFKENAEQSRAAINKWVSNKTEGRITDVIPSEAINELTVLVLVNTIYFKGLWKSKFSPENTRKELFYKADGESCSASMMYQEGKFRYRRVAEGTQVLELPFKGDDITMVLILPKPEKSLAKVEKELTPEVLQEWLDELEEMMLVVHMPRFRIEDGFSLKEQLQDMGLVDLFSPEKSKLPGIVAEGRDDLYVSDAFHKAFLEVNEEGSEAAASTALEANGRSLNPNRVTFKANRPFLVFIREVPLNTIIFMGRVANPCVK
notes: Recombinant human ATIII variant made in Drosophila S2 cells on the S137A background
B3: in assay [9], the “halflife, min (HNE/hep)” value is 30.1 min. The “kapp (apparent second-order inhibition rate constant)” value with human factor Xa [10] was determined as 298000 M⁻¹ s⁻¹; in the assay with human thrombin, 278 M⁻¹ s⁻¹; with human factor Xa [11], 1800 M⁻¹ s⁻¹.

B4: LEAI.482 (other)
chain: SPVDICTAKPRDIPMNPMCIYRSPEKKATEDEGSEQKIPEATNRRVWELSKANSRFATTFYQHLADSKNDNDNIFLSPLSISTAFAMTKLGACNDTLQQLMEVFKFDTISEKTSDQIHFFFAKLNCRLYRKANKASKLVSANRLFGDKSLTFNETYQDISELVYGAKLQPLDFKENAEQSRAAINKWVSNKTEGRITDVIPSEAINELTVLVLVNTIYFKGLWKSKFSPENTRKELFYKADGESCSASMMYQEGKFRYRRVAEGTQVLELPFKGDDITMVLILPKPEKSLAKVEKELTPEVLQEWLDELEEMMLVVHMPRFRIEDGFSLKEQLQDMGLVDLFSPEKSKLPGIVAEGRDDLYVSDAFHKAFLEVNEEGSEAAASTALEAHGRSLNPNRVTFKANRPFLVFIREVPLNTIIFMGRVANPCVK
notes: as for B3
In the case of B4, the “halflife, min (HNE/hep)” value in [9] came out at 25.3 min. In addition, the results for the “kapp (apparent second-order inhibition rate constant)” value with human factor Xa [10], with human thrombin and with human factor Xa [11] were 831000 M⁻¹ s⁻¹, 2920 M⁻¹ s⁻¹ and 5360 M⁻¹ s⁻¹, respectively.

B5: LEAI.480 (other)
chain: SPVDICTAKPRDIPMNPMCIYRSPEKKATEDEGSEQKIPEATNRRVWELSKANSRFATTFYQHLADSKNDNDNIFLSPLSISTAFAMTKLGACNDTLQQLMEVFKFDTISEKTSDQIHFFFAKLNCRLYRKANKASKLVSANRLFGDKSLTFNETYQDISELVYGAKLQPLDFKENAEQSRAAINKWVSNKTEGRITDVIPSEAINELTVLVLVNTIYFKGLWKSKFSPENTRKELFYKADGESCSASMMYQEGKFRYRRVAEGTQVLELPFKGDDITMVLILPKPEKSLAKVEKELTPEVLQEWLDELEEMMLVVHMPRFRIEDGFSLKEQLQDMGLVDLFSPEKSKLPGIVAEGRDDLYVSDAFHKAFLEVNEEGSEAAASTALEAYGRSLNPNRVTFKANRPFLVFIREVPLNTIIFMGRVANPCVK
notes: as for B3
For B5, the “halflife, min (HNE/hep)” value in assay [9] stood at 19.9 min. For the same molecule, the “kapp (apparent second-order inhibition rate constant)” value with human factor Xa [10] was found to be 489000 M⁻¹ s⁻¹; in the assay with human thrombin, 7310 M⁻¹ s⁻¹; with human factor Xa [11], 24100 M⁻¹ s⁻¹.
